The series concerns the molecule itself. The experiment in a line: SDS-PAGE.

B1: porin OmpF from E. coli (wild type) (natural protein, UniProt P02931 23-362, looked up)
chain: AEIYNKDGNKVDLYGKAVGLHYFSKGNGENSYGGNGDMTYARLGFKGETQINSDLTGYGQWEYNFQGNNSEGADAQTGNKTRLAFAGLKYADVGSFDYGRNYGVVYDALGYTDMLPEFGGDTAYSDDFFVGRVGGVATYRNSNFFGLVDGLNFAVQYLGKNERDTARRSNGDGVGGSISYEYEGFGIVGAYGAADRTNLQEAQPLGNGKKAEQWATGLKYDANNIYLAANYGETRNATPITNKFTNTSGFANKTQDVLLVAQYQFDFGLRPSIAYTKSKAKDVEGIGDVDLVNYFEVGATYYFNKNMSTYVDYIINQIDSDNKLGVGSDDTVAVGIVYQF
On to B1, for which the “stoichiometry N” value was determined as 3.
